B1: FLPPEHTIVYI (peptide)
peptide: FLPPEHTIVYI
B2: GLLEAKVSL (peptide)
peptide: GLLEAKVSL
B3: LLDGFLVNV (peptide)
peptide: LLDGFLVNV
B4: ALYTGFSILV (peptide)
peptide: ALYTGFSILV
B5: GLDAATATV (peptide)
peptide: GLDAATATV
B6: GLLPGDRLVSV (peptide)
peptide: GLLPGDRLVSV
B7: FLFPNQYVDV (peptide)
peptide: FLFPNQYVDV
B8: AAFAGKLLSV (peptide)
peptide: AAFAGKLLSV
B9: LLWEVVSQL (peptide)
peptide: LLWEVVSQL
B10: AIAYILQGV (peptide)
peptide: AIAYILQGV
B11: TLLAFIMEL (peptide)
peptide: TLLAFIMEL
B12: LLLNELPSV (peptide)
peptide: LLLNELPSV
B13: VLASYNLTV (peptide)
peptide: VLASYNLTV
B14: SIFSAFLSV (peptide)
peptide: SIFSAFLSV
B15: ALSEEGLLVYL (peptide)
peptide: ALSEEGLLVYL
B16: VLLTFKIFL (peptide)
peptide: VLLTFKIFL
B17: ELAERVPAI (peptide)
peptide: ELAERVPAI
B18: ILLEQAFYL (peptide)
peptide: ILLEQAFYL
B19: SMIDDLLGV (peptide)
peptide: SMIDDLLGV
B20: VLLPNDLLEKV (peptide)
peptide: VLLPNDLLEKV
B21: YVLEFLEEI (peptide)
peptide: YVLEFLEEI
B22: ALLEASGTLLL (peptide)
peptide: ALLEASGTLLL
B23: YLISFQTHI (peptide)
peptide: YLISFQTHI
B24: VLFQGQASL (peptide)
peptide: VLFQGQASL
B25: SLVEVNPAYSV (peptide)
peptide: SLVEVNPAYSV
B26: LLIGTDVSL (peptide)
peptide: LLIGTDVSL
B27: SLFGGTEITI (peptide)
peptide: SLFGGTEITI

This assay concerns the target T1, HLA-A*02:01 (human).
T1 construct: monomers captured on streptavidin plates; also called MHC class I
As to the kind of experiment: UV peptide exchange ELISA. In outline:
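Peptide-MHC complexes formed by UV-triggered exchange of a cleavable peptide for the test peptide, with stabilised complexes indicating binding. Exchange products diluted 100 fold onto streptavidin-coated wells, 1h at 37° C.; HRP anti-β2m (2 μg/ml), TMB, absorbance at 450 nm gives exchange yield.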
Background: An ELISA detects its analyte on a solid surface through an enzyme-linked reagent.
In the case of B1, the peptide exchange yield was in the range of 50 to 75%.
With B2 the figure was 50 to 75%.
For B3 the value was 50 to 75%; for B4, 20 to 50%.
B5: the peptide exchange yield is 20 to 50%.
With B6 the figure was 50 to 75%; with B7, 50 to 75%.
For B8 the value was 50 to 75%; for B9, 50 to 75%.
With B10 the figure was 20 to 50%; with B11, 50 to 75%; with B12, 50 to 75%.
In turn, B13 came in with a peptide exchange yield of 50 to 75%.
For B14 the value was 50 to 75%; for B15, 50 to 75%.
For B16 the value was 20 to 50%.
With B17 the figure was 20 to 50%; with B18, 50 to 75%; with B19, 50 to 75%.
B20: the peptide exchange yield lay within 50 to 75%.
Regarding B21, the peptide exchange yield is 20 to 50%.
For B22 the value was ≥ 75%; for B23, 50 to 75%.
For B24 the value was 50 to 75%; for B25, 50 to 75%; for B26, 50 to 75%.
For B27 the value was 50 to 75%.
